In patent US20210277140A1:

Target: CD47 on Raji B cells (human) (UniProt Q08722)
Experiment: cell-based or functional assay

whole cell eating of Raji B cells by CAR-P^FcRγ macrophages, antibody at 20 µg/ml: 2.5 fold
B1: anti human CD47 (mouse antibody), clone B6H12 (antibody, from another filing, IgG1, V domains shown)
VH: EVQLVESGGDLVKPGGSLKLSCAASGFTFSGYGMSWVRQTPDKRLEWVATITSGGTYTYYPDSVKGRFTISRDNAKNTLYLQIDSLKSEDTAIYFCARSLAGNAMDYWGQGTSVTVSS
VL: DIVMTQSPATLSVTPGDRVSLSCRASQTISDYLHWYQQKSHESPRLLIKFASQSISGIPSRFSGSGSGSDFTLSINSVEPEDVGVYYCQNGHGFPRTFGGGTKLEIK
